# Tests used:
# Assay in all cases: cell-based or functional assay
# [1] = target: HIV-1 Env of pseudovirus RHPA4259.7 (HIV-1)
# [2] = target: HIV-1 Env of pseudovirus 6041.v3.c23 (HIV-1)
# [3] = target: HIV-1 Env of pseudovirus 1012_11_TC21_3257 (HIV-1)
# [4] = target: HIV-1 Env of pseudovirus CNE30 (HIV-1)
# [5] = target: HIV-1 Env of pseudovirus Q259.d2.17 (HIV-1)
# [6] = target: HIV-1 Env of pseudovirus 191955_A11 (HIV-1)
# [7] = target: HIV-1 Env of pseudovirus 1394C9G1(Rev-) (HIV-1)
# [8] = target: HIV-1 Env of pseudovirus X1254_c3 (HIV-1)
# [9] = target: HIV-1 Env of pseudovirus BF1266.431a (HIV-1)
# [10] = target: HIV-1 Env of pseudovirus SC422661.8 (HIV-1)
# [11] = target: HIV-1 Env of pseudovirus 6480.v4.c25 (HIV-1)
# [12] = target: HIV-1 Env of pseudovirus CNE19 (HIV-1)
# [13] = target: HIV-1 Env of pseudovirus Du156.12 (HIV-1)
# [14] = target: HIV-1 Env of pseudovirus 62357_14_D3_4589 (HIV-1)
# [15] = target: HIV-1 Env of pseudovirus 1006_11_C3_1601 (HIV-1)
# [16] = target: HIV-1 Env of pseudovirus CNE58 (HIV-1)
# [17] = target: HIV-1 Env of pseudovirus 231965.c01 (HIV-1)
# [18] = target: HIV-1 Env of pseudovirus CNE17 (HIV-1)
# [19] = target: HIV-1 Env of pseudovirus 6240_08_TA5_4622 (HIV-1)
# [20] = target: HIV-1 Env of pseudovirus P0402_c2_11 (HIV-1)
# [21] = target: HIV-1 Env of pseudovirus X1632_S2_B10 (HIV-1)
# [22] = target: HIV-1 Env of pseudovirus 6545.v4.c1 (HIV-1)
# [23] = target: HIV-1 Env of pseudovirus 211-9 (HIV-1)
# [24] = target: HIV-1 Env of pseudovirus HIV-16055-2.3 (HIV-1)
# [25] = target: HIV-1 Env of pseudovirus 249M B10 (HIV-1)
# [26] = target: HIV-1 Env of pseudovirus C4118.c09 (HIV-1)
# [27] = target: HIV-1 Env of pseudovirus 235-47 (HIV-1)
# [28] = target: HIV-1 Env of pseudovirus Ce703010054_2A2 (HIV-1)
# [29] = target: HIV-1 Env of pseudovirus Q842.d12 (HIV-1)
# [30] = target: HIV-1 Env of pseudovirus BJOX015000.11.5 (HIV-1)
# [31] = target: HIV-1 Env of pseudovirus CAP45.2.00.G3 (HIV-1)
# [32] = target: HIV-1 Env of pseudovirus R2184.c04 (HIV-1)
# [33] = target: HIV-1 Env of pseudovirus ZM53M.PB12 (HIV-1)
# [34] = target: HIV-1 Env of pseudovirus BJOX009000.02.4 (HIV-1)
# [35] = target: HIV-1 Env of pseudovirus ZM109F.PB4 (HIV-1)
# [36] = target: HIV-1 Env of pseudovirus 3103.v3.c10 (HIV-1)
# [37] = target: HIV-1 Env of pseudovirus Du422.1 (HIV-1)
substance,measurement,setting,value
PGT145 (antibody),IC50,[1],0.029 µg/mL
same,IC80,[1],0.095 µg/mL
same,"IC50, titer in TZM.bl cells",[2],0.964 µg/mL
same,"IC80, titer in TZM.bl cells",[2],> 50 µg/mL
same,IC50,[3],0.009 µg/mL
same,IC80,[3],0.025 µg/mL
same,IC50,[4],> 50 µg/mL
same,IC80,[4],> 50 µg/mL
same,IC50,[5],44.2 µg/mL
same,IC80,[5],> 50 µg/mL
same,IC50,[6],< 0.001 µg/mL
same,IC80,[6],< 0.001 µg/mL
same,IC50,[7],0.001 µg/mL
same,IC80,[7],0.005 µg/mL
same,"IC50, titer in TZM.bl cells",[8],5.6 µg/mL
same,"IC80, titer in TZM.bl cells",[8],> 50 µg/mL
same,IC50,[9],1.34 µg/mL
same,IC80,[9],18.5 µg/mL
same,IC50,[10],0.024 µg/mL
same,IC80,[10],0.082 µg/mL
same,"IC50, titer in TZM.bl cells",[11],> 50 µg/mL
same,"IC80, titer in TZM.bl cells",[11],> 50 µg/mL
same,IC50,[12],0.103 µg/mL
same,IC80,[12],1.13 µg/mL
same,IC50,[13],0.001 µg/mL
same,IC80,[13],0.018 µg/mL
same,IC50,[14],> 50 µg/mL
same,IC80,[14],> 50 µg/mL
same,IC50,[15],> 50 µg/mL
same,IC80,[15],> 50 µg/mL
same,IC50,[16],0.183 µg/mL
same,IC80,[16],7.41 µg/mL
same,"IC50, titer in TZM.bl cells",[17],0.403 µg/mL
same,"IC80, titer in TZM.bl cells",[17],15 µg/mL
same,IC50,[18],0.091 µg/mL
same,IC80,[18],1.16 µg/mL
same,IC50,[19],> 50 µg/mL
same,IC80,[19],> 50 µg/mL
same,"IC50, titer in TZM.bl cells",[20],0.009 µg/mL
same,"IC80, titer in TZM.bl cells",[20],0.038 µg/mL
same,"IC50, titer in TZM.bl cells",[21],0.012 µg/mL
same,"IC80, titer in TZM.bl cells",[21],2.03 µg/mL
same,"IC50, titer in TZM.bl cells",[22],0.114 µg/mL
same,"IC80, titer in TZM.bl cells",[22],3.1 µg/mL
same,"IC50, titer in TZM.bl cells",[23],0.129 µg/mL
same,"IC80, titer in TZM.bl cells",[23],0.923 µg/mL
same,IC50,[24],0.003 µg/mL
same,IC80,[24],0.051 µg/mL
same,IC50,[25],0.947 µg/mL
same,IC80,[25],41.3 µg/mL
same,"IC50, titer in TZM.bl cells",[26],< 0.001 µg/mL
same,"IC80, titer in TZM.bl cells",[26],0.004 µg/mL
same,"IC50, titer in TZM.bl cells",[27],3.21 µg/mL
same,"IC80, titer in TZM.bl cells",[27],36 µg/mL
same,IC50,[28],> 50 µg/mL
same,IC80,[28],> 50 µg/mL
same,IC50,[29],0.032 µg/mL
same,IC80,[29],0.552 µg/mL
same,"IC50, titer in TZM.bl cells",[30],> 50 µg/mL
same,"IC80, titer in TZM.bl cells",[30],> 50 µg/mL
same,IC50,[31],0.001 µg/mL
same,IC80,[31],0.007 µg/mL
same,"IC50, titer in TZM.bl cells",[32],0.073 µg/mL
same,"IC80, titer in TZM.bl cells",[32],0.376 µg/mL
same,IC50,[33],0.367 µg/mL
same,IC80,[33],11.8 µg/mL
same,"IC50, titer in TZM.bl cells",[34],0.117 µg/mL
same,"IC80, titer in TZM.bl cells",[34],0.745 µg/mL
same,IC50,[35],0.042 µg/mL
same,IC80,[35],0.234 µg/mL
same,"IC50, titer in TZM.bl cells",[36],0.043 µg/mL
same,"IC80, titer in TZM.bl cells",[36],0.164 µg/mL
same,IC50,[37],22.6 µg/mL
same,IC80,[37],> 50 µg/mL
VRC07 (antibody),neutralization IC50,[1],0.017 µg/mL
same,neutralization IC80,[1],0.048 µg/mL
same,"IC50, titer in TZM.bl cells",[2],0.018 µg/mL
same,"IC80, titer in TZM.bl cells",[2],0.058 µg/mL
same,neutralization IC50,[3],0.014 µg/mL
same,neutralization IC80,[3],0.045 µg/mL
same,neutralization IC50,[4],0.326 µg/mL
same,neutralization IC80,[4],1.08 µg/mL
same,neutralization IC50,[5],0.024 µg/mL
same,neutralization IC80,[5],0.1 µg/mL
same,neutralization IC50,[6],0.978 µg/mL
same,neutralization IC80,[6],4.82 µg/mL
same,neutralization IC50,[7],0.112 µg/mL
same,neutralization IC80,[7],0.368 µg/mL
same,"IC50, titer in TZM.bl cells",[8],0.041 µg/mL
same,"IC80, titer in TZM.bl cells",[8],0.2 µg/mL
same,neutralization IC50,[9],0.032 µg/mL
same,neutralization IC80,[9],0.117 µg/mL
same,neutralization IC50,[10],0.054 µg/mL
same,neutralization IC80,[10],0.175 µg/mL
same,"IC50, titer in TZM.bl cells",[11],0.032 µg/mL
same,"IC80, titer in TZM.bl cells",[11],0.134 µg/mL
same,neutralization IC50,[12],0.092 µg/mL
same,neutralization IC80,[12],0.232 µg/mL
same,neutralization IC50,[13],0.041 µg/mL
same,neutralization IC80,[13],0.149 µg/mL
same,neutralization IC50,[14],0.075 µg/mL
same,neutralization IC80,[14],0.256 µg/mL
same,neutralization IC50,[15],0.015 µg/mL
same,neutralization IC80,[15],0.046 µg/mL
same,neutralization IC50,[16],0.11 µg/mL
same,neutralization IC80,[16],0.298 µg/mL
same,"IC50, titer in TZM.bl cells",[17],0.085 µg/mL
same,"IC80, titer in TZM.bl cells",[17],0.263 µg/mL
same,neutralization IC50,[18],0.136 µg/mL
same,neutralization IC80,[18],0.651 µg/mL
same,neutralization IC50,[19],0.448 µg/mL
same,neutralization IC80,[19],1.54 µg/mL
same,"IC50, titer in TZM.bl cells",[20],0.085 µg/mL
same,"IC80, titer in TZM.bl cells",[20],0.422 µg/mL
same,"IC50, titer in TZM.bl cells",[21],0.023 µg/mL
same,"IC80, titer in TZM.bl cells",[21],0.107 µg/mL
same,"IC50, titer in TZM.bl cells",[22],> 50 µg/mL
same,"IC80, titer in TZM.bl cells",[22],> 50 µg/mL
same,"IC50, titer in TZM.bl cells",[23],5.92 µg/mL
same,"IC80, titer in TZM.bl cells",[23],38 µg/mL
same,neutralization IC50,[24],0.025 µg/mL
same,neutralization IC80,[24],0.135 µg/mL
same,neutralization IC50,[25],0.052 µg/mL
same,neutralization IC80,[25],0.204 µg/mL
same,"IC50, titer in TZM.bl cells",[26],0.121 µg/mL
same,"IC80, titer in TZM.bl cells",[26],0.444 µg/mL
same,"IC50, titer in TZM.bl cells",[27],0.024 µg/mL
same,"IC80, titer in TZM.bl cells",[27],0.075 µg/mL
same,neutralization IC50,[28],0.19 µg/mL
same,neutralization IC80,[28],0.912 µg/mL
same,neutralization IC50,[29],0.015 µg/mL
same,neutralization IC80,[29],0.051 µg/mL
same,"IC50, titer in TZM.bl cells",[30],0.054 µg/mL
same,"IC80, titer in TZM.bl cells",[30],0.479 µg/mL
same,neutralization IC50,[31],0.355 µg/mL
same,neutralization IC80,[31],3.09 µg/mL
same,"IC50, titer in TZM.bl cells",[32],0.02 µg/mL
same,"IC80, titer in TZM.bl cells",[32],0.104 µg/mL
same,neutralization IC50,[33],0.275 µg/mL
same,neutralization IC80,[33],1.29 µg/mL
same,"IC50, titer in TZM.bl cells",[34],0.806 µg/mL
same,"IC80, titer in TZM.bl cells",[34],2.9 µg/mL
same,neutralization IC50,[35],0.112 µg/mL
same,neutralization IC80,[35],0.389 µg/mL
same,"IC50, titer in TZM.bl cells",[36],0.675 µg/mL
same,"IC80, titer in TZM.bl cells",[36],1.95 µg/mL
same,neutralization IC50,[37],> 50 µg/mL
same,neutralization IC80,[37],> 50 µg/mL

# From patent US20230002480A1
